Data: US9238802B2, “E. coli transformant, method for producing flavin-bound glucose dehydrogenase using the same, and mutant flavin-bound glucose dehydrogenases” (KIKKOMAN CORPORATION, priority 2010, dated 2016)

B1: GOD derived from Aspergillus niger: commercial glucose oxidase derived from Aspergillus niger (GOD, biozyme laboratories) (protein, UniProt P13006 17-605, looked up)
Glucose oxidase: LPHYIRSNGIEASLLTDPKDVSGRTVDYIIAGGGLTGLTTAARLTENPNISVLVIESGSYESDRGPIIEDLNAYGDIFGSSVDHAYETVELATNNQTALIRSGNGLGGSTLVNGGTWTRPHKAQVDSWETVFGNEGWNWDNVAAYSLQAERARAPNAKQIAAGHYFNASCHGVNGTVHAGPRDTGDDYSPIVKALMSAVEDRGVPTKKDFGCGDPHGVSMFPNTLHEDQVRSDAAREWLLPNYQRPNLQVLTGQYVGKVLLSQNGTTPRAVGVEFGTHKGNTHNVYAKHEVLLAAGSAVSPTILEYSGIGMKSILEPLGIDTVVDLPVGLNLQDQTTATVRSRITSAGAGQGQAAWFATFNETFGDYSEKAHELLNTKLEQWAEEAVARGGFHNTTALLIQYENYRDWIVNHNVAYSELFLDTAGVASFDVWDLLPFTRGYVHILDKDPYLHHFAYDPQYFLNELDLLGQAAATQLARNISNSGAMQTYFAGETIPGDNLAYDADLSAWTEYIPYHFRPNYHGVGTCSMMPKEMGGVVDNAARVYGVQGLRVIDGSIPPTQMSSHVMTVFYAMALKISDAILEDYASMQ
B2: NS3: GDH with a deletion to the 27th Ser and Met added to the 28st Ser (SEQ ID NO: 30) (protein)
chain: MSTDTYDYVIVGGGVAGLALASRISENKDVTVAVLESGPNANDRFVVYAPGMYGQAVGTDLCPLIPTTPQENMGNRSLTIATGRLLGGGSAINGLVWTRGGLKDYDAWEELGNPGWNGANLFKYFKKVENFTPPTPAQIEYGATYQKSAHGKKGPIDVSFTNYEFSQSASWNASLETLDFTALPDILNGTLAGYSTTPNILDPETVQRVDSYTGYIAPYTSRNNLNVLANHTVSRIQFAPKNGSEPLKATGVEWYPTGNKNQKQIIKARYEVIISSGAIGSPKLLEISGIGNKDIVSAAGVESLIDLPGVGSNMQDHVHAITVSTTNITGYTTNSVFVNETLAQEQREEYEANKTGIWATTPNNLGYPTPEQLFNGTEFVSGKEFADKIRNSTDEWANYYASTNASNVELLKKQYAIVASRYEENYLSPIEINFTPGYEGSGNVDLQNNKYQTVNHVLIAPLSRGYTHINSSDVEDHSVINPQYYSHPMDIDVHIASTKLAREIITASPGLGDINSGEIEPGMNITSEDDLRSWLSNNVRSDWHPVGTCAMLPKELGGVVSPALMVYGTSNLRVVDASIMPLEVSSHLMQPTYGIAEKAADIIKNFYKTQHKNQN
modifications: NS3
B3: NS1: GDH with a deletion to the 20th Ala and Met added to the 21st Gln (SEQ ID NO: 23) (protein)
chain: MQQDTNSSSTDTYDYVIVGGGVAGLALASRISENKDVTVAVLESGPNANDRFVVYAPGMYGQAVGTDLCPLIPTTPQENMGNRSLTIATGRLLGGGSAINGLVWTRGGLKDYDAWEELGNPGWNGANLFKYFKKVENFTPPTPAQIEYGATYQKSAHGKKGPIDVSFTNYEFSQSASWNASLETLDFTALPDILNGTLAGYSTTPNILDPETVQRVDSYTGYIAPYTSRNNLNVLANHTVSRIQFAPKNGSEPLKATGVEWYPTGNKNQKQIIKARYEVIISSGAIGSPKLLEISGIGNKDIVSAAGVESLIDLPGVGSNMQDHVHAITVSTTNITGYTTNSVFVNETLAQEQREEYEANKTGIWATTPNNLGYPTPEQLFNGTEFVSGKEFADKIRNSTDEWANYYASTNASNVELLKKQYAIVASRYEENYLSPIEINFTPGYEGSGNVDLQNNKYQTVNHVLIAPLSRGYTHINSSDVEDHSVINPQYYSHPMDIDVHIASTKLAREIITASPGLGDINSGEIEPGMNITSEDDLRSWLSNNVRSDWHPVGTCAMLPKELGGVVSPALMVYGTSNLRVVDASIMPLEVSSHLMQPTYGIAEKAADIIKNFYKTQHKNQN
modifications: NS1
B4: NS4: GDH with a deletion to the 27th Ser and the 28st Ser substituted by Met (SEQ ID NO: 32) (protein)
chain: MTDTYDYVIVGGGVAGLALASRISENKDVTVAVLESGPNANDRFVVYAPGMYGQAVGTDLCPLIPTTPQENMGNRSLTIATGRLLGGGSAINGLVWTRGGLKDYDAWEELGNPGWNGANLFKYFKKVENFTPPTPAQIEYGATYQKSAHGKKGPIDVSFTNYEFSQSASWNASLETLDFTALPDILNGTLAGYSTTPNILDPETVQRVDSYTGYIAPYTSRNNLNVLANHTVSRIQFAPKNGSEPLKATGVEWYPTGNKNQKQIIKARYEVIISSGAIGSPKLLEISGIGNKDIVSAAGVESLIDLPGVGSNMQDHVHAITVSTTNITGYTTNSVFVNETLAQEQREEYEANKTGIWATTPNNLGYPTPEQLFNGTEFVSGKEFADKIRNSTDEWANYYASTNASNVELLKKQYAIVASRYEENYLSPIEINFTPGYEGSGNVDLQNNKYQTVNHVLIAPLSRGYTHINSSDVEDHSVINPQYYSHPMDIDVHIASTKLAREIITASPGLGDINSGEIEPGMNITSEDDLRSWLSNNVRSDWHPVGTCAMLPKELGGVVSPALMVYGTSNLRVVDASIMPLEVSSHLMQPTYGIAEKAADIIKNFYKTQHKNQN
modifications: NS4
B5: NS2: GDH with a deletion to the 20th Ala and the 21st Gln substituted by Met (SEQ ID NO: 25) (protein)
chain: MQDTNSSSTDTYDYVIVGGGVAGLALASRISENKDVTVAVLESGPNANDRFVVYAPGMYGQAVGTDLCPLIPTTPQENMGNRSLTIATGRLLGGGSAINGLVWTRGGLKDYDAWEELGNPGWNGANLFKYFKKVENFTPPTPAQIEYGATYQKSAHGKKGPIDVSFTNYEFSQSASWNASLETLDFTALPDILNGTLAGYSTTPNILDPETVQRVDSYTGYIAPYTSRNNLNVLANHTVSRIQFAPKNGSEPLKATGVEWYPTGNKNQKQIIKARYEVIISSGAIGSPKLLEISGIGNKDIVSAAGVESLIDLPGVGSNMQDHVHAITVSTTNITGYTTNSVFVNETLAQEQREEYEANKTGIWATTPNNLGYPTPEQLFNGTEFVSGKEFADKIRNSTDEWANYYASTNASNVELLKKQYAIVASRYEENYLSPIEINFTPGYEGSGNVDLQNNKYQTVNHVLIAPLSRGYTHINSSDVEDHSVINPQYYSHPMDIDVHIASTKLAREIITASPGLGDINSGEIEPGMNITSEDDLRSWLSNNVRSDWHPVGTCAMLPKELGGVVSPALMVYGTSNLRVVDASIMPLEVSSHLMQPTYGIAEKAADIIKNFYKTQHKNQN
modifications: NS2

How the values were obtained:
Type in all cases: biochemical
[1] = GDH activity of purified enzymes (DCIP/PMS assay); conditions: purified enzyme
Method: Specifically, the activities of the flavin-bound GDHs are measured according to the following procedures. To initiate a reaction, 1.79 mL of 100 mM phosphate buffer (pH7.0), 0.08 mL of 1.25 M D-glucose solution, and 0.01 mL of 20 mM DCIP solution are mixed, followed by incubation at 37° C. for 5 minutes, and, subsequently, 0.02 mL of 20 mM PMS solution and 0.1 mL of an enzyme sample solution are added. Absorbance is measured at the initiation of the reaction and over time to determine a decrease in the absorbance at 600 nm (ΔA600) per minute due to the progress of the enzyme reaction and calculate flavin-bound GDH activity according to the following formula. […]
Solutions were mixed according to the following procedures, followed by absorbance measurement to examine GDH activity in the crude enzyme solution. […] A decrease in the absorbance at 600 nm (ΔA600) per minute due to the progress of the enzyme reaction after the initiation of the reaction was determined to calculate GDH activity according to the following formula. […]
GDH activity was measured as described in Example 1. GOD activity was measured using 4-aminoantipyrine (4-AA) and N-ethyl-N-(2-hydroxy-3-sulfopropyl)-3-methylaniline (TOOS) as described below. […] An increase in the absorbance at 555 nm (ΔA555) per minute due to the progress of the enzyme reaction was determined to calculate GOD activity according to the following formula.

[2] = GOD activity (4-AA/TOOS/POD assay); conditions: 37° C., 131 mM D-glucose
Method: GDH activity was measured as described in Example 1. GOD activity was measured using 4-aminoantipyrine (4-AA) and N-ethyl-N-(2-hydroxy-3-sulfopropyl)-3-methylaniline (TOOS) as described below. To initiate a reaction, 30.0 mL of 100 mM phosphate buffer (pH 7.0), 6.0 mL of 833 mM D-glucose solution, 0.3 mL of 25 mM 4-AA solution, 0.3 mL of 40 mM TOOS solution, and 0.3 mL of 500 U/mL POD solution were mixed, of which 3.0 mL was transferred into a test tube and incubated at 37° C. for five minutes, and 0.1 mL of an enzyme sample solution was added. An increase in the absorbance at 555 nm (ΔA555) per minute due to the progress of the enzyme reaction was determined to calculate GOD activity according to the following formula.
The formula indicates 3.1 as the liquid volume (mL) of reaction reagent plus enzyme reagent, 32.8 as millimolar extinction coefficient (cm^2/μmol) under the activity assay conditions, 0.5 as the number of quinoneimine dye molecules generated when one H2O2 molecule is reduced, 0.1 as the liquid volume (mL) of an enzyme solution, 1.0 as the optical path length (cm) of a cell, ΔA555blank as an increase in the absorbance at 555 nm per minute when 10 mM acetate buffer, instead of an enzyme sample solution, is added to initiate a reaction, and df as a dilution factor.

[3] = Substrate specificity of GDHs produced by the E. coli transformant; conditions: according to Examples 3 and 5

Molecule | GDH activity [1] [U/mL] | GOD activity [2] [U/mL] | substrate specificity (in words) [3]
B1 | 3.50 | 9.38 | 
B2 |  |  | almost comparable with that of the purified GDH obtained in Example 2
B3 |  |  | almost comparable with that of the purified GDH obtained in Example 2
B4 |  |  | almost comparable with that of the purified GDH obtained in Example 2
B5 |  |  | almost comparable with that of the purified GDH obtained in Example 2
